Data published in article PMC10413271.
“And” between values parts separate entries of the source, which are not always exact repeats. Identical values can stand only once.

Tests used:
[1] = biological target: NiV-soluble external domain glycoprotein G (NiV-Ge) expressed from Ad5-NiVGe (Nipah virus, Bangladesh strain (NiV-Bd)); assay: Western blot (ProteinSimple capillary system)
[2] = biological target: NiV full-length glycoprotein G (NiV-G) expressed from Ad5-NiVG (Nipah virus, Bangladesh strain (NiV-Bd)); assay: Western blot (ProteinSimple capillary system)

With “NiV-soluble external domain glycoprotein G (NiV-Ge) expressed from Ad5-NiVGe (domain or fragment)” the stoichiometry N [1] was 2 and 4.

For “NiV full-length glycoprotein G (NiV-G) expressed from Ad5-NiVG (natural protein)”, the stoichiometry N [2] was 2.
